T1: MED24 (Mus musculus (endogenous in CH12 cells), UniProt Q99K74 1-987)
T1 sequence (looked up): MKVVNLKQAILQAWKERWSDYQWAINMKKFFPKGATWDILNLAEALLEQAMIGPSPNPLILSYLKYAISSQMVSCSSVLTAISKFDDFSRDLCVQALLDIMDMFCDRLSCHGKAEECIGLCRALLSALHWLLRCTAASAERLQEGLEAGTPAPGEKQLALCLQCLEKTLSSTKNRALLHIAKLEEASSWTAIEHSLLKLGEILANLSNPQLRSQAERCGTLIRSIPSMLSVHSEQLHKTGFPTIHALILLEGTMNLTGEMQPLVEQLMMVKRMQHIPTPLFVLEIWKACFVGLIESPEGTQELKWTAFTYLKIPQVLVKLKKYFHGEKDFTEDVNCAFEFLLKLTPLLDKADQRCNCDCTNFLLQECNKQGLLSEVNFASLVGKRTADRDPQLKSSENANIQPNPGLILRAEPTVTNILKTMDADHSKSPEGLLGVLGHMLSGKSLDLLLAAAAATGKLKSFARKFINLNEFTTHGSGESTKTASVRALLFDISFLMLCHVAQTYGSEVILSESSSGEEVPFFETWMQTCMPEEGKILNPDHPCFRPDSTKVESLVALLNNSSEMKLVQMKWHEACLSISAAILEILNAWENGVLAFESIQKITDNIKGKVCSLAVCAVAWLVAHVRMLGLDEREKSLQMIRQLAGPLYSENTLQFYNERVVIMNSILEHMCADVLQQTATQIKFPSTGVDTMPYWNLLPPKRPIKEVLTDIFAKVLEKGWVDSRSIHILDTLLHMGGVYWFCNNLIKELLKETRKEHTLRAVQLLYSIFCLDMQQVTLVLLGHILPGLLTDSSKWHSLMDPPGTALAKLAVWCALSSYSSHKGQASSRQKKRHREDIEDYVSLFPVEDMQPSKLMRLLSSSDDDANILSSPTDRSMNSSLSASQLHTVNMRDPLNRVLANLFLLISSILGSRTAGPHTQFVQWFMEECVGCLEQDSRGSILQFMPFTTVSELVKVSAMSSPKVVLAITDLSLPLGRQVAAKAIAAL

T2: MED23 (Mus musculus (endogenous in CH12 cells), UniProt Q80YQ2 1-1367)
T2 sequence (looked up): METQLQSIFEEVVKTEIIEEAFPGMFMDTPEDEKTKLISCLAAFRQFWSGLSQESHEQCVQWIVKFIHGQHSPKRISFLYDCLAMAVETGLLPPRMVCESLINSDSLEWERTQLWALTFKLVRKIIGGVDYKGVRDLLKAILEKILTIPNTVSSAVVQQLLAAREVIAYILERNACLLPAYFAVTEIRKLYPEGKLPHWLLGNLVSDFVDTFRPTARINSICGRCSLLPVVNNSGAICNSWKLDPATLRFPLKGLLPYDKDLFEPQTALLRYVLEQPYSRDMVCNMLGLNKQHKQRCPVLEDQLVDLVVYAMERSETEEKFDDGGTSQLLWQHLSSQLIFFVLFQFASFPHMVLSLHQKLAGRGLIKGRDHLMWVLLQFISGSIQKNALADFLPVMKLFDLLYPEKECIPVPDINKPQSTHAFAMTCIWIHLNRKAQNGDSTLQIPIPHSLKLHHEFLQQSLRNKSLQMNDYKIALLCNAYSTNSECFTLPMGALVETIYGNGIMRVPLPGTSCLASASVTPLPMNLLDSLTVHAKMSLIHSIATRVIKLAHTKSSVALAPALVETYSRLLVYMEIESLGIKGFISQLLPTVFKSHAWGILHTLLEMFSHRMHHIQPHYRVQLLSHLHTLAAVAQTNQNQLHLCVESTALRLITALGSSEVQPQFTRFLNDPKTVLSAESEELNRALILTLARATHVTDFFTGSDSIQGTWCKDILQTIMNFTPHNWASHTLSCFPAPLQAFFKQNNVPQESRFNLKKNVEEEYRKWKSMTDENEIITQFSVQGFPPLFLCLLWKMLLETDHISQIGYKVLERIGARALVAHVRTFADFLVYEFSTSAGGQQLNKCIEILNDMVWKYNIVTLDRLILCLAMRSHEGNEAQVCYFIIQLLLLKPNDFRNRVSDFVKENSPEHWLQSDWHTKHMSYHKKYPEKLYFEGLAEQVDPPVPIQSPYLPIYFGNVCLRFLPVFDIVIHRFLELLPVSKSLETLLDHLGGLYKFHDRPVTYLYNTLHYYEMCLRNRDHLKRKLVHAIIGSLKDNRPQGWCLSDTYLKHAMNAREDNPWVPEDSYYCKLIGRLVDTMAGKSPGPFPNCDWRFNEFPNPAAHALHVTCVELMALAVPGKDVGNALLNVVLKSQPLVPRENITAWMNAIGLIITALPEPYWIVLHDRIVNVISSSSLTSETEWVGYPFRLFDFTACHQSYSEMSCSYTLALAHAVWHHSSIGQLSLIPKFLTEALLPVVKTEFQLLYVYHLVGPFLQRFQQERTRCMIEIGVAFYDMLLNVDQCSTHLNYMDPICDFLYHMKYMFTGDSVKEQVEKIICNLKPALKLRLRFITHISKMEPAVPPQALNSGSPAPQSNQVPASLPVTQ

T3: MED16 (Mus musculus (endogenous in CH12 cells), UniProt Q6PGF3 1-828)
T3 sequence (looked up): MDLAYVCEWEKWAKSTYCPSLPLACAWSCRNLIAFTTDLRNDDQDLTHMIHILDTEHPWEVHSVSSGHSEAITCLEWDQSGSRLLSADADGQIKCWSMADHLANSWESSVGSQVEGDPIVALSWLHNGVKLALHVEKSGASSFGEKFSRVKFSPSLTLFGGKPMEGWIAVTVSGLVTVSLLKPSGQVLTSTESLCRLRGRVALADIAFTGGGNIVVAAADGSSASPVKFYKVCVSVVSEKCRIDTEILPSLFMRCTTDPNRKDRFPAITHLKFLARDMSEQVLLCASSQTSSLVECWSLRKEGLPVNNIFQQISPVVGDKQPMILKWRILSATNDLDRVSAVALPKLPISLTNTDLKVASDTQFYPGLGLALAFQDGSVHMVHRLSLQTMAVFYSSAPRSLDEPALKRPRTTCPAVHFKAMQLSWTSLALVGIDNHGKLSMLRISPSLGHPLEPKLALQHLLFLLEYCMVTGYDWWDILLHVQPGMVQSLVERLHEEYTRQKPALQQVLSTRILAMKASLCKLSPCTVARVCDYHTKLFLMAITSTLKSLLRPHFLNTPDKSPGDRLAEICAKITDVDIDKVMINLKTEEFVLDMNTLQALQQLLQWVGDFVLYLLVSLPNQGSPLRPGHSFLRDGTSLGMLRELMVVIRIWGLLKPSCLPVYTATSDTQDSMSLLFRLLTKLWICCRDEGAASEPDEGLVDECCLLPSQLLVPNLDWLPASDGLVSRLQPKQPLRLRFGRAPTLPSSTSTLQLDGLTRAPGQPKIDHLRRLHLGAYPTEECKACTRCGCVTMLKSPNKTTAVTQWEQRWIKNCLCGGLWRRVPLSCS


Legend:
Test in all cases: cryo-EM structure
MED24 = target: T1, MED24
MED23 = target: T2, MED23
MED16 = target: T3, MED16
MED14 = MED14 (Mus musculus (endogenous in CH12 cells), UniProt A2ABV5 1-1459)
Sequence of MED14 (A2ABV5 whole entry): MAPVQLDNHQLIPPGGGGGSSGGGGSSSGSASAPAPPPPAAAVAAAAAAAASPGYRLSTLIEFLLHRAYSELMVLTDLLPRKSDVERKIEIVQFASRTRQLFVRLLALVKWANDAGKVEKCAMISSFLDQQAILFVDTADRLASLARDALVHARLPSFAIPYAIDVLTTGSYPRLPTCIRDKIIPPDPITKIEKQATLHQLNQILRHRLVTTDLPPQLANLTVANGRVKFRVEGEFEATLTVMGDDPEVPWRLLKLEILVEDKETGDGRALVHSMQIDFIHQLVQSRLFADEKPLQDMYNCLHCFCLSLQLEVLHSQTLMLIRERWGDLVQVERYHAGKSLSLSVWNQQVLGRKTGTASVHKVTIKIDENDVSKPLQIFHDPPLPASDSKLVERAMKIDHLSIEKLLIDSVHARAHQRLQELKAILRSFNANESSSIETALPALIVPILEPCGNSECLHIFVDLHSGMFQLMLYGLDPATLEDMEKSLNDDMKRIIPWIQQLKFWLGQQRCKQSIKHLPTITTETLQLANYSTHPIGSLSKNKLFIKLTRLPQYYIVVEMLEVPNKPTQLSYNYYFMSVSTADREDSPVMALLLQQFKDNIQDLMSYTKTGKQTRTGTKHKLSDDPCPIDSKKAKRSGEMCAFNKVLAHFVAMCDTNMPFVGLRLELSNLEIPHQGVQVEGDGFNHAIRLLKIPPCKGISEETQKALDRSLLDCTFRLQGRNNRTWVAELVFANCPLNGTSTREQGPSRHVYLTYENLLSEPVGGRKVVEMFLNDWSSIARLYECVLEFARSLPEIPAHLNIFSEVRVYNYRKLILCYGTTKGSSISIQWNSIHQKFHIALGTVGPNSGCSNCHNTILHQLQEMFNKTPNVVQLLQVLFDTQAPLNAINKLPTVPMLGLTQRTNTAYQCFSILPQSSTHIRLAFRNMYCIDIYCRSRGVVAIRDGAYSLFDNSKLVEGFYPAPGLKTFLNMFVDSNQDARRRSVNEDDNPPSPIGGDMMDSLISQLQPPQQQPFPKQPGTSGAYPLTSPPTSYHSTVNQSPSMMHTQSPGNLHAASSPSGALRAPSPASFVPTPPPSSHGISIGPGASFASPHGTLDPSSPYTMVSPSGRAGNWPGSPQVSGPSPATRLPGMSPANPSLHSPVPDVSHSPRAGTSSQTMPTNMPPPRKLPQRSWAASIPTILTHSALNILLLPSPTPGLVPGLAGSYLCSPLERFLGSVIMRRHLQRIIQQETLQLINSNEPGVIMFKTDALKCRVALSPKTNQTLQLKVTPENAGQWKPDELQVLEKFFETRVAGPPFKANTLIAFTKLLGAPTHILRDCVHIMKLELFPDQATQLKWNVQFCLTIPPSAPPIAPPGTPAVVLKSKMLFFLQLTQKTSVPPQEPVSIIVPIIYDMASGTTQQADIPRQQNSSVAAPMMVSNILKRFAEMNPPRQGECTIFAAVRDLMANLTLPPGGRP

Row | binding result (MED24) | binding result (MED23) | binding result (MED16) | binding result (MED14) | Binder
1 | binds | binds | binds |  | MED25 (natural protein, Mus musculus (endogenous in CH12 cells), UniProt Q8VCB2 1-745, looked up) MVPGSEGPARAGGLVADVVFVIEGTANLGPYFEELRKHYLLPAIEYFNGGPPAETDFGGDYGGTQYSLVVFNTVDCAPESYVQCHAPTSSAYEFVTWLDGIKFMGGGGESCSLIAEGLSTALQLFDDFKKMREQIGQTHRVCLLICNSPPYLLPAVESTTYSGCTTESLVQKIGERGIHFSIVSPRKLPALRLLFEKAAPPALLEPLQQPADVSQDPRHMVLVRGLVLPVGGSSTSGSLQTKQAVPLPPAPASAATLSAAPPQALPPVPPQYQVPGNLSAAQVAAQNAVEAAKSQKAGLGPRFSPINPLQQAAPGVGPPFSQAPAPPLAPVPPGAPKPPPASQPSLVSTVAPGPVLAAPAQPGAPSLAGTVTPGGVNGPSAAQLGGPALGGQQSVSNKLLAWSGVLEWQEKPKPASVDANTKLTRSLPCQVYVNHGENLKTEQWPQKLIMQLIPQQLLTTLGPLFRNSRMVQFHFTNKDLESLKGLYRIMGNGFAGCVHFPHTAPCEVRVLMLLYSSKKKIFMGLIPYDQSGFVNGIRQVITNHKQVQQQKLEQQRGMGAQQAPPVLGPILEEQARPPQNLLQLRAPQPQPQGAVGASAATGQPQPQGATQAPTGAPQGPPGAAPGPPPSGPILRPQNPGANPQLRSLLLNPAPPQTGVPPPQASLHHLQPPGAPTLLPPHQSMGQPQLGPQLLHPPPAQSWPTQLPQRAPLPGQMLLSGGPRGPVPQPGLQPSVMEDDILMDLI
2 | binds | binds | binds | binds | MED15 (natural protein, Mus musculus (endogenous in CH12 cells), UniProt Q924H2 1-789, looked up) MDVSGQETDWRSAAFRQKLVSQIEDAMRKAGVAHSKSSKDMESHVFLKAKTRDEYLSLVARLIIHFRDIHNKKSQASVSDPMNALQSLTGGPTPGAAGIGMPPRGPGQSLGGMGGLGAMGQPLPLSGQPPPGTSGMAPHGMAVVSTATPQTQLQLQQVALQQQQQQQQQQQFQQQQAALQQQQQQQQQQQQQQQFQAQQNAMQQQFQAVVQQQQLQQQQQQQHLIKLHHQSQQQQIQQQQLQRMAQLQLQQQQQQQQQQALQAQPPMQQPSMQQPQPPPSQALPQQLSQLHHPQHHQPPPQAQQSPIAQNQPPQIPPQSQSQPLVSQAQALPGPMLYAAQQQLKFVRAPMVVQQPQVQPQVQQVQPQVQPQAAVQAAQSAQMVAPGVQMIAEALAQGGMHVRARFPPTSTMSAGPSSSISLGGQPTTQVSQSSLTMLSSPSPGQQVQTPQSMPPPPQPSPQPGSQPNSNVSSGPAPSPSSFLPSPSPQPSQSPVTARTPQNFSVPSPGPLNTPVNPSSVMSPAGSSQAEEQQYLDKLKQLSKYIEPLRRMINKIDKNEDRKKDLSKMKSLLDILTDPSKRCPLKTLQKCEIALEKLKNDMAVPTPPPPPVLPTKQQDLCQPLLDAVLANIRSPVFNHSLYRTFVPAMMAIHGPPIVSPVVCSRKRRFEEDERQSIPNVLQGEVARLDPKFLVNLDPSHCSNNGTVHLICKLDDKDLPSVPPLELSVPADYPAQSPMWIDRQWQYDANPFLQSVHRCMTSRLLQLPDKHSVTALLNTWAQSIHQACLSAA

— publication doi:10.1101/2020.10.05.326918 (bioRxiv, 2020)
